Patent US20260007756A1, “COMPOUND AND USE THEREOF” (COHERENT BIOPHARMA (SUZHOU) LIMITED, priority 2022, published 2026)
Values after ≈ are worked out from the molar mass of the structure shown. Where two headings read alike, the source gives them in different places.

What was measured:
[1] = system: human prostate cancer 22Rv-1 cell subcutaneous xenograft; assay: Pharmacodynamic assessment, 22Rv-1 xenograft model (Example 17); type: in vivo, BALB/c nude male mouse; conditions: for Safety: 2.87 / 2.88 mg/kg i.v biw×3w
Protocol: Objective: Pre-clinical anti-tumor effect assessment of CR202 series of compounds in BALB/c nude male mouse model with human prostate cancer 22Rv-1 cell subcutaneous xenograft.
Procedures: 22Rv-1 (CL-00458) cells were cultured in a PRMI1640 medium containing 10% fetal bovine serum. The 22Rv-1 cells in the exponential phase were collected and resuspended in PBS to an appropriate concentration for subcutaneous tumor grafting in nude mice. The mice were subcutaneously grafted at the right back with 1×10^7 22Rv-1 cells, which were resuspended in a mixture of PBS and matrigel (1:1, 0.1 mL/mouse). The growth of the tumors was observed periodically. When the mean volume of the tumors reached 100-150 mm^3, the mice were randomized according to the tumor size. After the administration, the routine monitoring included the effect on tumor growth and the effect of treatment on the normal behavior of the animals, specifically the activity, food and water intake, weight gain or loss, the eyes, the hair, and other abnormal conditions. Clinical symptoms observed during the study were recorded in the raw data. After the administration was started, the body weight and tumor size of the mice were measured periodically. The tumor volume was calculated using the following formula: V=1/2×(a×b^2), where a and b denote the long diameter and short diameter of the tumor, respectively.

[2] = system: plasmin; conditions: PBS pH 7.4, 37° C.
Protocol: • 1) The compounds were formulated into 500 μg/mL stock solutions with PBS (pH 7.4); • 2) 60 μL of 500 μg/mL compound stock solution was added to 420 μL PBS (pH 7.4), before 60 μL of 0.2 U/mL plasmin (or 60 μL of 0.5 U/mL sulfatase) was added, and the mixture was well mixed by gentle shaking; • 3) The cleavage reaction system in step 2) was transferred to a thermostatic incubator at 37° C. for 0 h, 1 h, 2 h, 4 h, or 24 h of incubation. Samples were taken and loaded at various time points for LC-MS analysis.

[3] = system: MDA-MB-231; type: cell-based, human; conditions: MDA-MB-231, 72 h, CellTiter-Glo
Excerpt: (§1) Negative and blank controls were set.

[4] = system: 22RV1; type: cell-based, human; conditions: 22RV1, 72 h, CellTiter-Glo
Excerpt: as §1

[5] = Plasma stability study 2; type: in vitro ADME; conditions: mouse plasma, 37° C.; for remaining at 0.5 h, 100 μg/mL / remaining at 1 h, 100 μg/mL / remaining at 2 h, 100 μg/mL / remaining at 4 h, 100 μg/mL / remaining at 6 h, 100 μg/mL: read-out: Residual rate of principal component
Protocol: • 1) The conjugate compounds were prepared into 1 mg/mL stock solutions with 0.1% TFA-acetonitrile water (1:1); • 2) 10 μL of 1 mg/mL compound stock solution was added into 90 μL of fresh plasma, and the mixture was well mixed by gentle shaking, and transferred to a thermostatic incubator at 37° C. for 0 h, 0.5 h, 1 h, 2 h, 4 h, 6 h, or 24 h of incubation; • 3) at the time points, samples were taken out and 300 μL of methanol solution (containing 10 ng/ml of terfenadine) was added for protein precipitation; • 4) the mixture was centrifuged (13 min, 4° C., 12000 rpm) and the supernatant was collected, and preserved in a −80° C. refrigerator; after collection, the samples were loaded for LC-MS analysis.

[6] = Solubility study in PBS; type: physicochemical; conditions: aqueous buffer, thermodynamic from solid; PBS (pH 7.2 to 7.4); read-out: Solubility, concentration
Protocol: The mixture was vortexed for 2 min until the solid was dissolved. The solubility was calculated as: C=m/V, C: concentration, m: sample weight, V: PBS total volume.

[7] = target: cathepsin B-human liver (Homo sapiens, UniProt P07858); conditions: 37° C.
Protocol: • 1) The conjugate compounds were prepared into 500 μg/mL stock solutions with 0.1% TFA-acetonitrile water (1:1); • 2) 60 μL of 500 μg/mL compound stock solution was added to 536 μL of 50 mM NaOAc (containing 1 mM EDTA+10 mM Cys), before 4 μL of cathepsin B (CB enzyme) was added, and the mixture was well mixed by gentle shaking. • 3) The cleavage reaction system in step 2) was transferred to a thermostatic incubator at 37° C. for 0 h, 1 h, 2 h, 4 h, or 24 h of incubation. Samples were taken and loaded at various time points for LC-MS analysis.

[8] = system: C4-2; conditions: C4-2, 72 h, CellTiter-Glo
Protocol: Cells were prepared in advance, trypsinized, collected, counted, diluted to 1.5×10^4 cells/mL in a complete cell culture medium, and plated in 96-well plates. The diluted cell suspension was added at 100 μL/well, and negative and blank control wells were set on each plate. The 96-well plates with the added cells were incubated overnight at 37° C. in a 5% CO2 incubator.
Samples were serially diluted with medium (serially 3-fold diluted from 10 μM) to 9 concentrations. The medium in the plates was discarded, and the drug solutions were added at 100 μL per well to a 96-well plate in triplicate. Negative and blank controls were set. The plates were incubated at 37° C. for 72 h in a 5% CO2 incubator.
The CellTiter-Glo buffer was thawed and warmed to room temperature, and the CellTiter-Glo substrate was warmed to room temperature. The CellTiter-Glo buffer was added to the flask containing CellTiter-Glo substrate to dissolve the substrate, thereby preparing a CellTiter-Glo working solution, which was then vortexed slowly to complete dissolution. The cell culture plates were equilibrated at room temperature for 30 min, before the CellTiter-Glo working solution was added at 50 μL/well (about half the volume of cell culture medium in each well). The plate was covered by aluminum foil to keep out of light. The culture plate was shaken on an orbital shaker for 2 min to induce cell lysis. The culture plate was left to stand at room temperature for 10 min to stabilize the luminescence signals. The luminescence signal was detected on a microplate reader (Molecular Devices SpectraMax iD5).
Four-parameter curves were fitted using GraphPad Prism 8.0.2 to give IC50 values.

[9] = system: HT-29 cell subcutaneous xenograft tumor; assay: Pharmacodynamic assessment, HT-29 xenograft model; type: in vivo, BALB/c nude mouse
Excerpt: Objective: Pre-clinical assessment of the efficacy of CR202 series of compounds for treating BALB/c nude mouse model with HT-29 cell subcutaneous xenograft tumor.
Procedures: HT-29 cells were subcutaneously grafted at the right back of the mice, and the mice were randomized when the mean tumor volume reached 100-150 mm^3. After the administration, the routine monitoring included the effect on tumor growth and the effect of treatment on the normal behavior of the animals, specifically the activity, food and water intake, weight gain or loss, the eyes, the hair, and other abnormal conditions. Clinical symptoms observed during the study were recorded in the raw data. After the administration was started, the body weight and tumor size of the mice were measured periodically. The tumor volume was calculated using the following formula: V=1/2×(a×b^2), where a and b denote the long diameter and short diameter of the tumor, respectively.

[10] = 2.88 mg/kg i.v BIW×3, day 29 after grouping
[11] = 10.9 mg/kg i.v BIW×3, day 25 after grouping
[12] = 22.7 mg/kg i.v BIW×3, day 25 after grouping

Structure (SMILES)	Safety [1]	IC50 [3] [nM]	IC50 [4] [nM]	CR20274 release rate (actual release/theoretical release) ([5]; 0 h) [%]	Residual rate of principal component ([5]; 0 h) [%]	CR20274 release rate (actual release/theoretical release) ([5]; 0.5 h) [%]	remaining at 0.5 h, 100 μg/mL ([5]; 0.5 h) [%]	CR20274 release rate (actual release/theoretical release) ([5]; 1 h) [%]	remaining at 1 h, 100 μg/mL ([5]; 1 h) [%]	CR20274 release rate (actual release/theoretical release) ([5]; 2 h) [%]	remaining at 2 h, 100 μg/mL ([5]; 2 h) [%]	CR20274 release rate (actual release/theoretical release) ([5]; 4 h) [%]	remaining at 4 h, 100 μg/mL ([5]; 4 h) [%]	CR20274 release rate (actual release/theoretical release) ([5]; 6 h) [%]	remaining at 6 h, 100 μg/mL ([5]; 6 h) [%]	CR20274 release rate (actual release/theoretical release) ([5]; 24 h) [%]	Residual rate of principal component ([5]; 24 h) [%]	also measured
CC[C@@H]1C(=O)N(C)c2cnc(Nc3ccc(-c4cn([C@H]5CC[C@@H](N(CCOCCC#Cc6cccc7c6CN(C6CCC(=O)NC6=O)C7=O)C(=O)OCc6ccc(OP(=O)(O)O)c(C(=O)NCCOCCOCCOCCn7cc(C[C@H](NC(=O)[C@H](CCCCN)NC(=O)[C@H](CC(=O)O)NC(=O)[C@H](CC(=O)O)NC(=O)Cc8ccc(CNC(=O)NCCCC[C@H](NC(=O)N[C@@H](CCC(=O)O)C(=O)O)C(=O)O)cc8)C(=O)N[C@@H](CCCCNC(=O)CC[C@H](NC(=O)c8ccc(NCc9cnc%10[nH]c(N)nc(=O)c%10n9)cc8)C(=O)O)C(N)=O)nn7)c6)CC5)nn4)cc3OC)nc2N1C1CCCC1 (stereo partly drawn) [CR202LB]	good safety																	
CC[C@@H]1C(=O)N(C)c2cnc(Nc3ccc(-c4cn([C@H]5CC[C@@H](N(CCOCCC#Cc6cccc7c6CN(C6CCC(=O)NC6=O)C7=O)C(=O)OCc6ccc(NC(=O)[C@H](CCCCN)NC(=O)[C@H](CC(C)C)NC(=O)[C@@H](NC(=O)COCCOCCn7cc(C[C@H](NC(=O)[C@H](CCCCN)NC(=O)[C@H](CC(=O)O)NC(=O)[C@H](CC(=O)O)NC(=O)Cc8ccc(CNC(=O)NCCCC[C@H](NC(=O)N[C@@H](CCC(=O)O)C(=O)O)C(=O)O)cc8)C(=O)N[C@@H](CCCCNC(=O)CC[C@H](NC(=O)c8ccc(NCc9cnc%10[nH]c(N)nc(=O)c%10n9)cc8)C(=O)O)C(N)=O)nn7)C(C)C)cc6)CC5)nn4)cc3OC)nc2N1C1CCCC1 (stereo partly drawn) [CR202V8]		24.1	20.5	0.06	78.37	1.94	50.9	5.56	59.9	7.07	49.5	14.20	41.2	14.58	32.5	105.58	−2.40	CR20274 release rate of compounds after cleavage ([2]; 0 h): 22%; Principal component residue of compounds after cleavage ([2]; 0 h): 8%; CR20274 release rate of compounds after cleavage ([2]; 1 h): 100%; Principal component residue of compounds after cleavage ([2]; 1 h): 1%; CR20274 release rate of compounds after cleavage ([2]; 2 h): 100%; Principal component residue of compounds after cleavage ([2]; 2 h): 1%; CR20274 release rate of compounds after cleavage ([2]; 4 h): 100%; Principal component residue of compounds after cleavage ([2]; 4 h): 0%; CR20274 release rate of compounds after cleavage ([2]; 24 h): 100%; Principal component residue of compounds after cleavage ([2]; 24 h): 0%; solubility [6]: 7500 µg/mL (≈ 2450 µM)
CC[C@@H]1C(=O)N(C)c2cnc(Nc3ccc(-c4cn([C@H]5CC[C@@H](N(CCOCCC#Cc6cccc7c6CN(C6CCC(=O)NC6=O)C7=O)C(=O)OCc6ccc(NC(=O)[C@H](CCCNC(N)=O)NC(=O)[C@@H](NC(=O)[C@H](CCC(=O)O)NC(=O)COCCOCCn7cc(C[C@H](NC(=O)[C@H](CCCCN)NC(=O)[C@H](CC(=O)O)NC(=O)[C@H](CC(=O)O)NC(=O)Cc8ccc(CNC(=O)NCCCC[C@H](NC(=O)N[C@@H](CCC(=O)O)C(=O)O)C(=O)O)cc8)C(=O)N[C@@H](CCCCNC(=O)CC[C@H](NC(=O)c8ccc(NCc9cnc%10[nH]c(N)nc(=O)c%10n9)cc8)C(=O)O)C(N)=O)nn7)C(C)C)cc6)CC5)nn4)cc3OC)nc2N1C1CCCC1 (stereo partly drawn) [CR202V4]		234	222	−0.12	84.13	0.04	75.9	0.11	74.3	0.17	78.2	0.30	61.3	0.42	70.4	2.62	1.36	CR20274 release rate of compounds after cleavage ([7]; 0 h): 0%; Principal component residue of compounds after cleavage ([7]; 0 h): 100.00%; CR20274 release rate of compounds after cleavage ([7]; 1 h): 100%; Principal component residue of compounds after cleavage ([7]; 1 h): 0.00%; CR20274 release rate of compounds after cleavage ([7]; 2 h): 100%; Principal component residue of compounds after cleavage ([7]; 2 h): 0.00%; CR20274 release rate of compounds after cleavage ([7]; 4 h): 100%; Principal component residue of compounds after cleavage ([7]; 4 h): 0.00%; CR20274 release rate of compounds after cleavage ([7]; 24 h): 100%; Principal component residue of compounds after cleavage ([7]; 24 h): 0.00%; IC50 [8]: 84.7 nM; solubility at 2 min [6]: 8000 µg/mL (≈ 2580 µM)
CCCOCCOCCOCCO[Si](Oc1ccc(COC(=O)N(CCOCCC#Cc2cccc3c2CN(C2CCC(=O)NC2=O)C3=O)[C@H]2CC[C@@H](n3cc(-c4ccc(Cc5ncc6c(n5)N(C5CCCC5)[C@H](CC)C(=O)N6C)c(OC)c4)nn3)CC2)cc1)(C(C)C)C(C)C (stereo partly drawn) [CR202HT]	good safety																	Mean tumor volume [1, 10]: 690.37 mm^3; TGI [1, 10]: 58.19%
CCOCCNS(=O)(=O)NC(=O)OCCOCCNC(=O)[C@H](Cc1cn(CCOC(=O)NS(=O)(=O)NCCOCCOC(=O)N[C@H](C(=O)N[C@@H](CCCNC(N)=O)C(=O)Nc2ccc(COC(=O)N(CCOCCC#Cc3cccc4c3CN(C3CCC(=O)NC3=O)C4=O)[C@H]3CC[C@@H](n4cc(-c5ccc(Nc6ncc7c(n6)N(C)[C@H](CC)C(=O)N7C)cc5)nn4)CC3)cc2)C(C)C)nn1)NC(=O)CC[C@H](NC(=O)c1ccc(NCc2cnc3nc(N)nc(O)c3n2)cc1)C(=O)O (stereo partly drawn) [CR202HR]																		Mean tumor volume [9, 11]: 946.05 mm^3; TGI [9, 11]: 54.51%; Mean tumor volume [9, 12]: 614.73 mm^3; TGI [9, 12]: 70.44%
